B1: FlgH (natural protein, UniProt P0A1N8 22-232, looked up)
chain: CAWIPAKPLVQGATTAQPIPGPVPVANGSIFQSAQPINYGYQPLFEDRRPRNIGDTLTIVLQENVSASKSSSANASRDGKTSFGFDTVPRYLQGLFGNSRADMEASGGNSFNGKGGANASNTFSGTLTVTVDQVLANGNLHVVGEKQIAINQGTEFIRFSGVVNPRTISGSNSVPSTQVADARIEYVGNGYINEAQNMGWLQRFFLNLSPM
notes: FlgH, the lipoprotein that forms the L ring, Salmonella enterica serovar Typhimurium; made as a precursor with a cleavable N-terminal signal peptide; the atomic model holds the whole 211 residues of FlgH; 26 subunits form the L ring (C26 symmetry); also called L ring protein; H0; source: endogenous, Salmonella HK1002 cells; in the hook-basal body (HBB) purified by sucrose density-gradient …
B2: FlgI (natural protein, UniProt P15930 20-365, looked up)
chain: ERIRDLTSVQGVRENSLIGYGLVVGLDGTGDQTTQTPFTTQTLNNMLSQLGITVPTGTNMQLKNVAAVMVTASYPPFARQGQTIDVVVSSMGNAKSLRGGTLLMTPLKGVDSQVYALAQGNILVGGAGASAGGSSVQVNQLNGGRITNGAIIERELPTQFGAGNTINLQLNDEDFTMAQQITDAINRARGYGSATALDARTVQVRVPSGNSSQVRFLADIQNMEVNVTPQDAKVVINSRTGSVVMNREVTLDSCAVAQGNLSVTVNRQLNVNQPNTPFGGGQTVVTPQTQIDLRQSGGSLQSVRSSANLNSVVRALNALGATPMDLMSILQSMQSAGCLRAKLEII
notes: FlgI, the periplasmic protein that forms the P ring, Salmonella enterica serovar Typhimurium; made as a precursor with a cleavable N-terminal signal peptide; 26 subunits form the P ring (C26 symmetry); Domains: FlgI-OR (1-11 and 160-230), FlgI-IRU (12-159), FlgI-IRL (231-346); also called P ring protein; I0; source: endogenous, Salmonella HK1002 cells; in the hook-basal body (HBB) purified by …

Assays:
FlgI = target: B2; test: cryo-EM structure; LP ring part of hook-basal body (HBB) particle images, C26 symmetry applied, 3.5 Å; HBB purified from Salmonella HK1002; final buffer 20 mM Tris-HCl pH 8.0, 150 mM NaCl, 0.05% Triton X-100; settings: both partners purified
[1] = target: the molecule itself; test: as above

Binder	binding result (FlgI)	stoichiometry N [1]
B1	binds	26
B2	–	26
